Biological target: T1, ISA2-TAP (ISA2 with a C-terminal tandem affinity purification tag) (Arabidopsis, UniProt Q8L735 71-882)
T1 construct: Isoamylase 2 (ISA2) of Arabidopsis thaliana; the chloroplast transit peptide is probably removed in the plant (surmised); also called TAP-tagged ISA2; ISA2-TAP tagged protein; source: Arabidopsis isa2-1 plants transformed with 35S::ISA2-TAP, leaf extract
T1 sequence (looked up): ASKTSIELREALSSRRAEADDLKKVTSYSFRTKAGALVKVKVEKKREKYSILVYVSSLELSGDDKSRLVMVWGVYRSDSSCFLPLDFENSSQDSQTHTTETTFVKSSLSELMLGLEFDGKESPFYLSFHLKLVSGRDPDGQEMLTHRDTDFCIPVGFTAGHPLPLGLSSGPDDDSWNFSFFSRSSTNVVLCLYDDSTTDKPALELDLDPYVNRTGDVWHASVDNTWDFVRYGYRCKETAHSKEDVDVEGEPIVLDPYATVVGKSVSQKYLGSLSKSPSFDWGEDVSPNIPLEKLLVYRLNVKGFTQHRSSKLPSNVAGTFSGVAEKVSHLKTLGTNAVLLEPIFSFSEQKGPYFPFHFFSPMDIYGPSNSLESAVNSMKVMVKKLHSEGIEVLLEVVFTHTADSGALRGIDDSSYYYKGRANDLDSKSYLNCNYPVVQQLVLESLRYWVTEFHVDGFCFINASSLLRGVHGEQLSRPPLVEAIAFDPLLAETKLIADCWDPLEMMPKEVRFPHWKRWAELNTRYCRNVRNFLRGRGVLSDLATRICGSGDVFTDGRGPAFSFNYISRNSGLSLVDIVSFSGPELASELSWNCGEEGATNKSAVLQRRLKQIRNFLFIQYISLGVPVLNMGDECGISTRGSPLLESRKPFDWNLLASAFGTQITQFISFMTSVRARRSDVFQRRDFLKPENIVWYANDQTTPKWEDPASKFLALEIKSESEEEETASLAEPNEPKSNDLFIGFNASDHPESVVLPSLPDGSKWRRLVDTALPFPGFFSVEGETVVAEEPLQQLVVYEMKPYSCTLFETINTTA
Test: affinity purification with mass spectrometry; tandem affinity purification of ISA2-TAP from leaf extracts (IgG-Sepharose, TEV elution, Calmodulin Sepharose with 2 mM CaCl2, EGTA elution); SDS-PAGE, silver stain, in-gel tryptic digestion, LC-MS/MS; wild-type extracts as control
Details: partners not purified

B1: Isoamylase1 (ISA1), Arabidopsis, endogenous (enzyme, UniProt O04196 44-783, looked up)
chain: AKDRRSNEAENIAVVEKPLKSDRFFISDGLPSPFGPTVRDDGVNFSVYSTNSVSATICLISLSDLRQNKVTEEIQLDPSRNRTGHVWHVFLRGDFKDMLYGYRFDGKFSPEEGHYYDSSNILLDPYAKAIISRDEFGVLGPDDNCWPQMACMVPTREEEFDWEGDMHLKLPQKDLVIYEMHVRGFTRHESSKIEFPGTYQGVAEKLDHLKELGINCIELMPCHEFNELEYYSYNTILGDHRVNFWGYSTIGFFSPMIRYASASSNNFAGRAINEFKILVKEAHKRGIEVIMDVVLNHTAEGNEKGPIFSFRGVDNSVYYMLAPKGEFYNYSGCGNTFNCNHPVVRQFILDCLRYWVTEMHVDGFRFDLGSIMSRSSSLWDAANVYGADVEGDLLTTGTPISCPPVIDMISNDPILRGVKLIAEAWDAGGLYQVGMFPHWGIWSEWNGKFRDVVRQFIKGTDGFSGAFAECLCGSPNLYQGGRKPWHSINFICAHDGFTLADLVTYNNKNNLANGEENNDGENHNYSWNCGEEGDFASISVKRLRKRQMRNFFVSLMVSQGVPMIYMGDEYGHTKGGNNNTYCHDNYMNYFRWDKKEEAHSDFFRFCRILIKFRDECESLGLNDFPTAKRLQWHGLAPEIPNWSETSRFVAFSLVDSVKKEIYVAFNTSHLATLVSLPNRPGYRWEPFVDTSKPSPYDCITPDLPERETAMKQYRHFLDANVYPMLSYSSIILLLSPIKDP
notes: Isoamylase 1 (ISA1) of Arabidopsis thaliana, endogenous protein in soluble leaf extracts; Chloroplast protein; also called AtISA1; source: endogenous, Arabidopsis leaf extracts (wild type and ISA2-TAP plants)
  stoichiometry N: 1

From PMC3787081, “The Heteromultimeric Debranching Enzyme Involved in Starch Synthesis in Arabidopsis Requires Both Isoamylase1 and Isoamylase2 Subunits for Complex Stability and Activity” (PLoS ONE, 2013)
